Bridge positions count the residues as written; N and C are the ends. Square brackets hold non-standard residues; d marks the D form. Primed or numbered codes have the meaning given here. Ends that are not written are not given here. Glu‑DTPA‑Gd = N-terminal Glu-DTPA-Gd chelate (gadolinium DTPA complex on glutamic acid); Glu‑DTPA‑Gd″ = N-terminal chelate: Glu-DTPA-Gd (glutamic acid–DTPA gadolinium chelate); Glu‑DTPA‑Gd(3) = N-terminal gadolinium chelate Glu-DTPA-Gd; PEG(2O) = not defined here
Tests used:
[1] = target: T1, human collagen type I, acid soluble, extracted from placenta (Sigma C7774) (human, UniProt P02452 162-1218; P08123 80-1119); assay: % binding to collagen I
T1 construct: tissue extract, gelled and dried in wells; also called dried human collagen; h-Collagen

[2] = target: T2, rat collagen, acid soluble, type I, rat tail (Upstate 08-115) (rat, UniProt P02454 152-1207; P02466 86-1125); assay: % binding to collagen I
T2 construct: tissue extract, gelled and dried in wells; also called dried rat collagen

[3] = target: T1, human collagen type I, acid soluble, …; assay: dried collagen assay
Protocol: (§1) An additional 90 μL is reserved in a HPLC glass vial as a measure of the total concentration.

[4] = target: T2, rat collagen, acid soluble, type I, rat …; assay: dried collagen assay
Protocol: as §1

T1 sequence (P02452 162-1218 limits assumed, chain 1 of 2): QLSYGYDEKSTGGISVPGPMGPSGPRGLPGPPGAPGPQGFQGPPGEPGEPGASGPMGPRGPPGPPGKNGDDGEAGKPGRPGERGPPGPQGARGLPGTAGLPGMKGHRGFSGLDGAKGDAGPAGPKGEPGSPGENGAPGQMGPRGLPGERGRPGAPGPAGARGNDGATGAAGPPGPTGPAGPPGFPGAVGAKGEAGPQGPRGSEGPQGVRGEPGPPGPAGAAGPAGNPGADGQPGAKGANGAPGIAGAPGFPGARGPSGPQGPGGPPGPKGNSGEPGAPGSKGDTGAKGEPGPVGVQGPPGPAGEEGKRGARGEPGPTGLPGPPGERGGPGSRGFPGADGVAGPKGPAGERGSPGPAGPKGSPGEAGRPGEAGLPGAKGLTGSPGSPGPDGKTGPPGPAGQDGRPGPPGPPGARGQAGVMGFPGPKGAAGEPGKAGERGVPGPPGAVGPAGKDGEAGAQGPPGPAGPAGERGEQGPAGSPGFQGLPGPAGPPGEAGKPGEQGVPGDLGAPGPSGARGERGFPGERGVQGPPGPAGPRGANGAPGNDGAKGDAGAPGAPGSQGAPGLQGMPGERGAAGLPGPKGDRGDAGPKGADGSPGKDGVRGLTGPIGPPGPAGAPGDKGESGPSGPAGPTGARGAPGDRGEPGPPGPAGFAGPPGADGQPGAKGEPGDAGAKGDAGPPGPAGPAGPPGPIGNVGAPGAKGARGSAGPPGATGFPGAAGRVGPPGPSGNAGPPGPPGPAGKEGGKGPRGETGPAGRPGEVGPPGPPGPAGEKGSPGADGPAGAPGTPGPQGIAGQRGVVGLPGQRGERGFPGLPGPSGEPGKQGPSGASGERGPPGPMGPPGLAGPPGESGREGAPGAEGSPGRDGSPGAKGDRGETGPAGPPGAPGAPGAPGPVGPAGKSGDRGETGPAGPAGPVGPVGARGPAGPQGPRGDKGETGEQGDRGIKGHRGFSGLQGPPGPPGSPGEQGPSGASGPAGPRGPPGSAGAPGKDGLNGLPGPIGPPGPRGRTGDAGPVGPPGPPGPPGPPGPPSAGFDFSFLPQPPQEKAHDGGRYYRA
T1 sequence (P08123 80-1119 limits assumed, chain 2 of 2): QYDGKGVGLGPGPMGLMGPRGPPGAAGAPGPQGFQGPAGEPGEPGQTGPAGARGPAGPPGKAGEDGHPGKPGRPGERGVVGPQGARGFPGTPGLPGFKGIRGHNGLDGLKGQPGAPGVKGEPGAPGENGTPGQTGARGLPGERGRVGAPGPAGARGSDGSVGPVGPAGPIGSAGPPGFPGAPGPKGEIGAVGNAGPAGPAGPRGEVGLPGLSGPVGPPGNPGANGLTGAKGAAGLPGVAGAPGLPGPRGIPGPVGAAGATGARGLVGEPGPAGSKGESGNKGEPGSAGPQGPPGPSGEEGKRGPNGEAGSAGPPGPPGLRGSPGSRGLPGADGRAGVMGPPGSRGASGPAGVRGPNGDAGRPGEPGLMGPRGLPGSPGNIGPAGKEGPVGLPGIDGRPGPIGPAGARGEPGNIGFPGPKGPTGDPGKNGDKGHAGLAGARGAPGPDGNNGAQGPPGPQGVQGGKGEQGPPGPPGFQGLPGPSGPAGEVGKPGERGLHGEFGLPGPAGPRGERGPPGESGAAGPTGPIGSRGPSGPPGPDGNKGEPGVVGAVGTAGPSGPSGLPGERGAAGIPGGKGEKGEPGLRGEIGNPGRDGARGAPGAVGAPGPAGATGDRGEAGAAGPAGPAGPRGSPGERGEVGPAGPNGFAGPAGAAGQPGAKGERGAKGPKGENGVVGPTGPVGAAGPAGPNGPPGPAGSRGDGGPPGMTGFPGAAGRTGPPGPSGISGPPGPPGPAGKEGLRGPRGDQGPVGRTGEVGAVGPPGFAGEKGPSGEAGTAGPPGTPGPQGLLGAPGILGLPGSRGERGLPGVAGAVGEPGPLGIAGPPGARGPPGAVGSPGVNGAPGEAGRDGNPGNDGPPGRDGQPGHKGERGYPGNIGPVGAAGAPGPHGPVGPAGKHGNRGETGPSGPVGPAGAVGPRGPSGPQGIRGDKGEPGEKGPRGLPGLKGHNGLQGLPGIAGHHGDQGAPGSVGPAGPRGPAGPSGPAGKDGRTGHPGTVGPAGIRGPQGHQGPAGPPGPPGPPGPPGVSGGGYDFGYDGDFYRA
T2 sequence (P02454 152-1207, chain 1 of 2): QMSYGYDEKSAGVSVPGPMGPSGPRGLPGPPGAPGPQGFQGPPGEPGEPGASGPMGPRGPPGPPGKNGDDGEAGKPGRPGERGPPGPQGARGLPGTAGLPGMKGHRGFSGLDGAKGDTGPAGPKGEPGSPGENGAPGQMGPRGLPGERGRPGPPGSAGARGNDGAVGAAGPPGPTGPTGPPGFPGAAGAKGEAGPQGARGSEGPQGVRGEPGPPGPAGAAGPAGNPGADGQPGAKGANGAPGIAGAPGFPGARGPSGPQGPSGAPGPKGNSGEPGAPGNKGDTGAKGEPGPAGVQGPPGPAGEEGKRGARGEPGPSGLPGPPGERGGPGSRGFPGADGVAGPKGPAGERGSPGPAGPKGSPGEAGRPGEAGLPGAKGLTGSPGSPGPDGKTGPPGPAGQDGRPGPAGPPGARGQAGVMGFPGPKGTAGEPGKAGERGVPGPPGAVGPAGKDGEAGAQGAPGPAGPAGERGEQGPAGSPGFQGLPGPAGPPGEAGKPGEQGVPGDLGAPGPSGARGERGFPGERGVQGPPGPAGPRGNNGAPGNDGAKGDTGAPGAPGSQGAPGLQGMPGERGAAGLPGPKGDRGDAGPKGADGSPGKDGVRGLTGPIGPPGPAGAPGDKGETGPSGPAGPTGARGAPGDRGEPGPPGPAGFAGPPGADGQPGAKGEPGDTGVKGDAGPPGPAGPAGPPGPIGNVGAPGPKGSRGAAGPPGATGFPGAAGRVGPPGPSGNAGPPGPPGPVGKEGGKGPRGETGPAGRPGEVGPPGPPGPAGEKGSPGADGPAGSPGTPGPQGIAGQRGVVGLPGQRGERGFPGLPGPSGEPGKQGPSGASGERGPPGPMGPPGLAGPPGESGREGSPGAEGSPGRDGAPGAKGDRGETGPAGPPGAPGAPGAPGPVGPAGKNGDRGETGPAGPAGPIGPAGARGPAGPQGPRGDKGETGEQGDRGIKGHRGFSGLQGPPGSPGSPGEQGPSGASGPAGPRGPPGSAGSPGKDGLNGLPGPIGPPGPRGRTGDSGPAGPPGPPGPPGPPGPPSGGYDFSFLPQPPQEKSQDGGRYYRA
T2 sequence (P02466 86-1125, chain 2 of 2): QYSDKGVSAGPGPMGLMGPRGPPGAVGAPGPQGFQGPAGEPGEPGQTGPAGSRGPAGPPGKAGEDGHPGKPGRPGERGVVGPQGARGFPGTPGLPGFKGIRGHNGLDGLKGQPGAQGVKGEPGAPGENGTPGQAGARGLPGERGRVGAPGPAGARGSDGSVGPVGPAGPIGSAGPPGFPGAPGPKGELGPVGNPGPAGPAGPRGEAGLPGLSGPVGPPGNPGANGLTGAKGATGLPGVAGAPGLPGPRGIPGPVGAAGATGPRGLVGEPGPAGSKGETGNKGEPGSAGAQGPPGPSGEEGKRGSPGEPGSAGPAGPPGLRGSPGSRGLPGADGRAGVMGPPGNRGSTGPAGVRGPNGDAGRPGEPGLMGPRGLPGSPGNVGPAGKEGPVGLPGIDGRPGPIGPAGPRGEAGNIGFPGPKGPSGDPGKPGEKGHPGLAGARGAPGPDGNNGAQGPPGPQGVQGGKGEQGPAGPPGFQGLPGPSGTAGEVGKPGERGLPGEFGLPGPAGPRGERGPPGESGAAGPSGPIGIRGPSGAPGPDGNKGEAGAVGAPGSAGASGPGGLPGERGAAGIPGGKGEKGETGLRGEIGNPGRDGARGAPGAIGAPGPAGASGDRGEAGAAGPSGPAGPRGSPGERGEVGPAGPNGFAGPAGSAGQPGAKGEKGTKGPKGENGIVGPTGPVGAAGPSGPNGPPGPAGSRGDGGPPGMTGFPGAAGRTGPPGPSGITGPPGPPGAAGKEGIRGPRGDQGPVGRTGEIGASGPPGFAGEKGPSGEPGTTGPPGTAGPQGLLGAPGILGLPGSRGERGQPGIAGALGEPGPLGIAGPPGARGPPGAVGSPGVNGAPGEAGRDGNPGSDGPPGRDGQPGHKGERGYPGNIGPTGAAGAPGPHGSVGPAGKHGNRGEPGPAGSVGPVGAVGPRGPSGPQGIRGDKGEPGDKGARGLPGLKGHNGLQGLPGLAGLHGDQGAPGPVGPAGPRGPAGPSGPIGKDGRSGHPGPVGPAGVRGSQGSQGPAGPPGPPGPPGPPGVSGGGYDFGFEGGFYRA

Row | Binder | % bound [1] | % bound [2] | % bound [3] | % bound [4]
1 | {Glu‑DTPA‑Gd″}-GGDWTCVGDHKTWKCNFH-NH2 (disulfide 6-15 (inferred), N-terminal G-G linker) [Compound ID 1023] | 14% | 12% | – | –
2 | DWTCSGDHLTWHCNYG (disulfide 4-13 (inferred), cyclic, disulfide) [SEQ ID NO 116] | – | – | 58% | 35%
3 | DWTCSGDHLTWKCNYG (disulfide 4-13 (inferred), cyclic, disulfide) [SEQ ID NO 117] | – | – | 38% | 24%
4 | {Glu‑DTPA‑Gd}-GQWTCSGDEYTWHCNYE (disulfide 5-14 (inferred); not fully specified (C-terminus), N-terminal G linker) [Compound ID 1021] | 48% | 13% | – | –
5 | GQWTCSGDEYTWHCNY (disulfide 5-14 (inferred), cyclic, disulfide) [SEQ ID NO 123] | – | – | 59% | 72%
6 | GQWTCSGDEY[dA]WHCNA[dE] (disulfide 5-14 (inferred), cyclic, disulfide) [SEQ ID NO 124] | – | – | 24% | 17%
7 | GQWTCSGDEYSWHCNY[dE] (disulfide 5-14 (inferred), cyclic, disulfide) [SEQ ID NO 125] | – | – | 85% | 86%
8 | GQWTCSGDAYTWHCAYE (disulfide 5-14 (inferred), cyclic, disulfide) [SEQ ID NO 128] | – | – | 80% | 72%
9 | GAWTCSGDEYTWHCNYE (disulfide 5-14 (inferred), cyclic, disulfide) [SEQ ID NO 129] | – | – | 87% | 84%
10 | GQWTCSGDEYTWHCAYE (disulfide 5-14 (inferred); not fully specified (C-terminus), cyclic, disulfide) [SEQ ID NO 149] | – | – | 82% | 82%
11 | GQWACSGDEYTWHCNYE (disulfide 5-14 (inferred), cyclic, disulfide) [SEQ ID NO 140] | – | – | 84% | 77%
12 | {Glu‑DTPA‑Gd}-WWTCHMTWSGQWDSCKWH-NH2 (disulfide 4-15 (inferred)) [Compound ID 1020] | 60% | 34% | – | –
13 | {Glu‑DTPA‑Gd(3)}-PPQWHCTTRFPHHYCLYG-NH2 (disulfide 6-15 (inferred), N-terminal P-P linker) [Compound ID 1024] | 70% | 55% | – | –
14 | DWTCSGNHLTWYCNYG (disulfide 4-13 (inferred), cyclic, disulfide) [SEQ ID NO 118] | – | – | 68% | 67%
15 | {Glu‑DTPA‑Gd″-PEG(2O)}-GQWTCSGDEYTWHCNY[dE]-NH2 (disulfide 5-14 (inferred); reading uncertain, linker -PEG(2O)-G- on the N-terminus) [Compound ID 1026] | 28% | – | – | –
16 | {Glu‑DTPA‑Gd}-GQWHCTTRFPHHYCLYG (disulfide 5-14 (inferred); not fully specified (C-terminus), N-terminal G linker) [Compound ID 1022] | 36% | 38% | – | –

Next, values leading:

Row | % bound [1] | % bound [2] | % bound [3] | % bound [4] | Binder
17 | – | – | 8% | 10% | YHACYQAGCW[dI]W (disulfide 4-9 (inferred); not fully specified (C-terminus); printed as YHACYQAGCWiW, cyclic, disulfide) [SEQ ID NO 161]
18 | – | – | 56% | 66% | YHACYQ[dA]GCWIW (disulfide 4-9 (inferred); not fully specified (C-terminus); printed as YHACYQaGCWIW, cyclic, disulfide; also called YHACYQaGCWIW) [SEQ ID NO 158]
19 | – | – | 87% | 81% | GQWTCSGDEYTWHCNYA (disulfide 5-14 (inferred); not fully specified (C-terminus), cyclic, disulfide) [SEQ ID NO 151]
20 | – | – | 89% | 86% | DWTCS[dY]DEYTWHCNYE (disulfide 4-13 (inferred), cyclic, disulfide) [SEQ ID NO 182]
21 | – | – | 38% | 48% | YHAC[dY]QAGCWIW (disulfide 4-9 (inferred); not fully specified (C-terminus); printed as YHACyQAGCWIW, cyclic, disulfide; also called YHACyQAGCWIW) [SEQ ID NO 156]
22 | – | – | 18% | 14% | YHACYQAGCWI[dW] (disulfide 4-9 (inferred); not fully specified (C-terminus); printed as YHACYQAGCWIw, cyclic, disulfide) [SEQ ID NO 162]
23 | – | – | 87% | 86% | DWTCS[dR]DEYTWHCNYE (disulfide 4-13 (inferred), cyclic, disulfide) [SEQ ID NO 181]
24 | – | – | 49% | 35% | QWTCSGD[dE]YTWHCNYE (disulfide 4-13 (inferred); not fully specified (N-terminus); printed as QWTCSGDeYTWHCNYE, cyclic, disulfide) [SEQ ID NO 170]
25 | – | – | 81% | 75% | DWTCS[dA]DEYTWHCNYE (disulfide 4-13 (inferred), cyclic, disulfide) [SEQ ID NO 179]
26 | – | – | 81% | 72% | DWTCS[dS]DEYTWHCNYE (disulfide 4-13 (inferred), cyclic, disulfide) [SEQ ID NO 180]
27 | – | – | 46% | 31% | [dQ]WTCSGDEYTWHCNYE (disulfide 4-13 (inferred); not fully specified (N-terminus, C-terminus); printed as qWTCSGDEYTWHCNYE, cyclic, disulfide) [SEQ ID NO 164]
28 | – | – | 9% | 8% | QWTCSGDEY[dT]WHCNYE (disulfide 4-13 (inferred); not fully specified (N-terminus); printed as QWTCSGDEYtWHCNYE, cyclic, disulfide) [SEQ ID NO 172]
29 | – | – | 73% | 63% | DWTCS[dL]DEYTWHCNYE (disulfide 4-13 (inferred), cyclic, disulfide) [SEQ ID NO 183]
30 | – | – | 30% | 27% | QWTCSGDEYTWHCN[dY]E (disulfide 4-13 (inferred); not fully specified (N-terminus); printed as QWTCSGDEYTWHCNyE, cyclic, disulfide) [SEQ ID NO 177]
31 | – | – | 90% | 87% | QWTCSGDEYTWHCNY[dE] (disulfide 4-13 (inferred); not fully specified (N-terminus); printed as QWTCSGDEYTWHCNYe, cyclic, disulfide) [SEQ ID NO 178]
32 | – | – | 24% | 21% | YH[dA]CYQAGCWIW (disulfide 4-9 (inferred); not fully specified (C-terminus); printed as YHaCYQAGCWIW, cyclic, disulfide) [SEQ ID NO 154]
33 | – | – | 37% | 35% | YHACY[dQ]AGCWIW (disulfide 4-9 (inferred); not fully specified (C-terminus); printed as YHACYqAGCWIW, cyclic, disulfide; also called YHACYqAGCWIW) [SEQ ID NO 157]
34 | – | – | 0% | 0% | Y[dH]ACYQAGCWIW (disulfide 4-9 (inferred); not fully specified (C-terminus); printed as YhACYQAGCWIW, cyclic, disulfide) [SEQ ID NO 153]
35 | – | – | 20% | 12% | YHACYQAGC[dW]IW (disulfide 4-9 (inferred); not fully specified (C-terminus); printed as YHACYQAGCwIW, cyclic, disulfide) [SEQ ID NO 160]
36 | – | – | 15% | 11% | YHA[dC]YQAGCWIW (disulfide 4-9 (inferred); not fully specified (C-terminus); printed as YHAcYQAGCWIW, cyclic, disulfide) [SEQ ID NO 155]
37 | 16% | 9% | – | – | WWGCRQGTGEHWSHCMWF (disulfide 4-15 (inferred); not fully specified (N-terminus, C-terminus); also: Gd chelated by DTPA at both ends) [SEQ ID NO 195]
